Key:
[1] = molecular target: T1, Cyno RGMa (cyno, UniProt Q9N0A6 54-433, limits assumed); assay: SPR (BIAcore), RGM antigen in solution
T1 sequence (looked up): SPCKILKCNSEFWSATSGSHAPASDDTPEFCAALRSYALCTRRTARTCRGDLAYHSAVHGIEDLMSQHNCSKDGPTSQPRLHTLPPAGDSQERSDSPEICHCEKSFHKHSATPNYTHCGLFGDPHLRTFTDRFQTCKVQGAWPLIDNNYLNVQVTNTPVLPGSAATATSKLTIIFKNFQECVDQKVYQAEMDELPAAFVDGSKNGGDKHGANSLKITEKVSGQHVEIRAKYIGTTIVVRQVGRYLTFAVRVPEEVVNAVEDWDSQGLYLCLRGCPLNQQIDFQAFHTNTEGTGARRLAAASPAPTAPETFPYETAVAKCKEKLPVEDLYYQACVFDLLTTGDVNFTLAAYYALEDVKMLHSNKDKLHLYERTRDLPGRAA

[2] = molecular target: T2, Human RGMb (human, UniProt Q6NW40 46-413, limits assumed); assay: SPR (BIAcore), RGM antigen in solution
T2 construct: also called repulsive guidance molecule B
T2 sequence (looked up): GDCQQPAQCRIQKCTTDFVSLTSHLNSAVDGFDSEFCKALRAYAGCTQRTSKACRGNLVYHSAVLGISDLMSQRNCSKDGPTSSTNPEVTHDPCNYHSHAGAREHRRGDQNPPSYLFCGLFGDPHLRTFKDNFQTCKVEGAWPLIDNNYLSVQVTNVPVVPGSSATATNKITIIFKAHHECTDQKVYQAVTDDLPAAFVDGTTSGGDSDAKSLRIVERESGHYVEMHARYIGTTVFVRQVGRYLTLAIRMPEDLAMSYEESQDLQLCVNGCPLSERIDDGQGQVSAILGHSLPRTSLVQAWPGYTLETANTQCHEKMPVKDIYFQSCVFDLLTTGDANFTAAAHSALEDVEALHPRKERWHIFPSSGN

[3] = molecular target: T3, soluble human RGMc (human, UniProt Q6ZVN8 36-400); assay: SPR (BIAcore), RGM antigen in solution
T3 construct: also called huRGMc; soluble hRGMc
T3 sequence: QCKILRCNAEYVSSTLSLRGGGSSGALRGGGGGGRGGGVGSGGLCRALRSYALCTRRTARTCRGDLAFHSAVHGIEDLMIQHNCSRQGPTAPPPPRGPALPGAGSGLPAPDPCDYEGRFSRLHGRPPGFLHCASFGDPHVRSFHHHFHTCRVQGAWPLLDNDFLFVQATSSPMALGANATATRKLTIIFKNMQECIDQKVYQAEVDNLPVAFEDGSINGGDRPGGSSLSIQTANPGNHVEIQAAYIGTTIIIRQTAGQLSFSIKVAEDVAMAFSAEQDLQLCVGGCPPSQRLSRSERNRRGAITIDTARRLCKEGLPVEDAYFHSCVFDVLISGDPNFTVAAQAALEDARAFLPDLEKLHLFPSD

[4] = molecular target: T4, Cyno RGMc (cyno, UniProt A0A2K5TJX5 36-401); assay: SPR (BIAcore), RGM antigen in solution
T4 sequence: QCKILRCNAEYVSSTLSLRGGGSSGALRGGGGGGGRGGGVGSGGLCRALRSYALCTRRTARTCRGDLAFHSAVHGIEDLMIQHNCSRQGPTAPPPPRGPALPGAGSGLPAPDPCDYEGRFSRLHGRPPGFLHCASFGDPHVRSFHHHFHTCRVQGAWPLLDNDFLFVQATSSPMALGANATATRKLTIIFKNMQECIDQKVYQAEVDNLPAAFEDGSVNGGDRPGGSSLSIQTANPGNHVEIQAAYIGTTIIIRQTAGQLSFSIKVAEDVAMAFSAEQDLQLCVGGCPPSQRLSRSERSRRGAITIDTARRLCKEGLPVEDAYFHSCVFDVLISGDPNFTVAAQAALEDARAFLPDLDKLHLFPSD

[5] = molecular target: T5, soluble human RGMa (human, UniProt Q96B86 48-422, limits assumed); assay: SPR (BIAcore), RGM antigen in solution
T5 construct: Soluble antigen in BIAcore; also called huRGMa; repulsive guidance molecule A
T5 sequence (looked up): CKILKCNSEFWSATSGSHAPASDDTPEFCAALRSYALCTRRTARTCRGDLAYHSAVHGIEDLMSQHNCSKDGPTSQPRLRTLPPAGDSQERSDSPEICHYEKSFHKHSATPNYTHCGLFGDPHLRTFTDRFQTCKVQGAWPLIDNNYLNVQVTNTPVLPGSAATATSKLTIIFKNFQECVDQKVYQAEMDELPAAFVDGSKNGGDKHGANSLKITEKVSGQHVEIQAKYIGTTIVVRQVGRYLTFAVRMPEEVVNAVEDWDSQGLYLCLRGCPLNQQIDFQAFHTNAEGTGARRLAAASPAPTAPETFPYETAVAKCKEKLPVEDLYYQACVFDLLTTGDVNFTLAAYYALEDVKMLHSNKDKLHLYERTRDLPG

[6] = molecular target: T6, soluble rat RGMa (rat, UniProt D4A188 48-421); assay: SPR (BIAcore);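 note: binding kinetics and affinity of anti-HJV antibodies toward soluble rat RGMa, determined by SPR on a BIAcore instrument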
T6 construct: Soluble antigen in BIAcore
T6 sequence: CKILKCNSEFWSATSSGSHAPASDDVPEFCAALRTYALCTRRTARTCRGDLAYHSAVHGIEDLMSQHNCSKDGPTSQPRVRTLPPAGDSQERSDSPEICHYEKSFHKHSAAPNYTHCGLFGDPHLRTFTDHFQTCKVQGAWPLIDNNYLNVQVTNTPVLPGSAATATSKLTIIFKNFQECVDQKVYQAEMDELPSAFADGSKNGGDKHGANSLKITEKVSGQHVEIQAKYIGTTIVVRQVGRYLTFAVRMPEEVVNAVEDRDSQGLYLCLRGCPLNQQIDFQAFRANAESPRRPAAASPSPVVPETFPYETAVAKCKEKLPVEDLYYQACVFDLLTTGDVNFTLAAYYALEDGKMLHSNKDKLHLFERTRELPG
Procedure: Binding affinities of the anti-HJV antibodies to soluble human RGMa, Rat RGMa and human RGMc were measured by BIAcore analysis.

B1: hHA-008 (antibody, human IgG1, kappa, L234A L235A)
heavy: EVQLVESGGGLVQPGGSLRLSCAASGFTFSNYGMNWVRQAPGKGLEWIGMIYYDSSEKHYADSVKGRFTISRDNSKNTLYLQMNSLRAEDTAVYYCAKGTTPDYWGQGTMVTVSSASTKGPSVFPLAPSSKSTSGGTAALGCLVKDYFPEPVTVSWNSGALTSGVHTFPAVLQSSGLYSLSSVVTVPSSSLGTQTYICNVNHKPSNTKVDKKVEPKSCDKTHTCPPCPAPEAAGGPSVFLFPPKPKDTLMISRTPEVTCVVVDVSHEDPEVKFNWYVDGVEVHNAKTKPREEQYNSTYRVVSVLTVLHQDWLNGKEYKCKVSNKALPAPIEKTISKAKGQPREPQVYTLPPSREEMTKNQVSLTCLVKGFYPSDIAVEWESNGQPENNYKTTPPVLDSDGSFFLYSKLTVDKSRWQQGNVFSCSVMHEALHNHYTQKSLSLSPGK
light: DVVLTQSPLSLPVTLGQPASISCRSSQSLEESDGYTFLHWFQQRPGQSPRLLIYEVSTRFSGVPDRFSGSGSGTDFTLKISRVEAEDVGVYYCFQATHDPLTFGQGTKLEIKRTVAAPSVFIFPPSDEQLKSGTASVVCLLNNFYPREAKVQWKVDNALQSGNSQESVTEQDSKDSTYSLSSTLTLSKADYEKHKVYACEVTHQGLSSPVTKSFNRGEC
notes: hIgG1 L234A, L235A, kappa; also called hHA-008 (hIgG1mut(LALA)/k)
With B1 as the binder, how does the Kd [1] read?
Its Kd is 0.64 nM.

And the koff [1]?
Its koff is 0.00035 s⁻¹.

And the kon [1]?
Its kon is 550000 M⁻¹ s⁻¹.

Does B1 bind [2]?
Result: no binding

What about the Kd [3] of the same binder?
Its Kd is 0.12 nM.

And the koff [3]?
Its koff is 0.00029 s⁻¹.

And the kon [3]?
Its kon is 2.5e+06 M⁻¹ s⁻¹.

What about the Kd [4] of the same binder?
Its Kd is 0.12 nM.

What about the koff [4] of the same binder?
The koff was 0.00031 s⁻¹.

What about the kon [4] of the same binder?
The kon was 2.6e+06 M⁻¹ s⁻¹.

And the Kd [5]?
The Kd was 0.074 nM.

And the koff [5]?
The koff was 3.6e-05 s⁻¹.

And the kon [5]?
The kon was 490000 M⁻¹ s⁻¹.

What about the Kd [6] of the same binder?
The Kd was < 1.5 pM.

And the koff [6]?
Its koff is < 1e-06 s⁻¹.

And the kon [6]?
The kon was 660000 M⁻¹ s⁻¹.
